Changes are numbered by the printed parent chain.
B1: Hab008L3H2a-hFc (scFv, part only; not given: VL-VH linker and human IgG1 Fc, V domains shown, not shown: another chain or arm of the molecule; a dimerising Fc or GST; small tags and cut ends)
VL: DIVMTQSPDSLAVSLGERATINCKASQNVGTAVAWYQQKPGQSPKLLIFSASIRYTGVPDRFSGSGSGTDFTLTISSLQAEDVAVYYCQQYSSSPYTFGGGTKVEIK
VH: EVQLVQSGAEVKKPGASVKVSCKASGYTFTDYYMNWVRQAPGQRLEWMGIINPYNSGTSYNQKFRGRVTLTVDKSASTAYMELSSLRSEDTAVYYCSRYDYDYDVEGAMDYWGQGTTVTVSS
B2: Hab008L3H5-hFc (scFv, part only; not given: scFv linker and human IgG1 Fc, V domains shown, not shown: another chain or arm of the molecule; a dimerising Fc or GST; small tags and cut ends)
VL: B1 VL
VH: B1 VH with Q39R, S56G, L70I

Experiments:
[1] = molecular target: human DLL1 protein (Acro, Cat. No. DL1-H52H8) (human) (UniProt O00548); test: ELISA, coated hDLL1; maximum over 0.1, 1, 10, 100 nM antibody
Sequence of human DLL1 protein (Acro, Cat. No. DL1-H52H8) (human) (O00548 18-540 limits assumed): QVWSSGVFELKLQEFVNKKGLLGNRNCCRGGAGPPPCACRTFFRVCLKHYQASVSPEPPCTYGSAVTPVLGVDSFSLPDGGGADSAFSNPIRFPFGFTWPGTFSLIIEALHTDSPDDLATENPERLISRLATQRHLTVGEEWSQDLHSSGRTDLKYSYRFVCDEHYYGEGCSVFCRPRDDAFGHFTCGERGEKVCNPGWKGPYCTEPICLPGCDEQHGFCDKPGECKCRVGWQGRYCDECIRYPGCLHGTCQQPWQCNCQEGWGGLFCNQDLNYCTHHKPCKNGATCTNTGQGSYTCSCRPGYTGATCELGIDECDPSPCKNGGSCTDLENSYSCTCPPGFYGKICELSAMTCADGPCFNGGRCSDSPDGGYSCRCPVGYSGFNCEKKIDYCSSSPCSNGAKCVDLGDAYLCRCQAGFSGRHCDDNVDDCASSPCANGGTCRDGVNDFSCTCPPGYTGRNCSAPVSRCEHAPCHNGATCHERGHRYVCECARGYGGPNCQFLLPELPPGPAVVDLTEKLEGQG

[2] = molecular target: human DLL4 protein (Acro, Cat. No. DL4-H5227) (human) (UniProt Q9NR61); test: ELISA, coated hDLL4; maximum over 0.1, 1, 10, 100 nM antibody
Sequence of human DLL4 protein (Acro, Cat. No. DL4-H5227) (human) (Q9NR61 27-524 limits assumed): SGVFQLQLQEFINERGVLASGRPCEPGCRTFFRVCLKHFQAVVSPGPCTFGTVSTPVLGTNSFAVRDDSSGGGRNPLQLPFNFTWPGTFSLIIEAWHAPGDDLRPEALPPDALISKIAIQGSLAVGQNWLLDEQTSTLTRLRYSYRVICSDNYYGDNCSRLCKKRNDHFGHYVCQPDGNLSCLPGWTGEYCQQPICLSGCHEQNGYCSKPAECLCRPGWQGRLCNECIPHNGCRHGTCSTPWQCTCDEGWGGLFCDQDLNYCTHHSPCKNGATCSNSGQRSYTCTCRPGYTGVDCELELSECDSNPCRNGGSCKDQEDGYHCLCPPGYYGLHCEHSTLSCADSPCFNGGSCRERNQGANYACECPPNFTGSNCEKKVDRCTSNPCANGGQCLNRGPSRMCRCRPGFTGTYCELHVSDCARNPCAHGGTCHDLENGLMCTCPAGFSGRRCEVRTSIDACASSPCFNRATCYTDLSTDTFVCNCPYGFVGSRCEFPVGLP

[3] = molecular target: human delta-like ligand 3 (DLL3) on SHP77 cells (human) (UniProt Q9NYJ7); test: FACS on SHP77 cells
Sequence of human delta-like ligand 3 (DLL3) on SHP77 cells (human) (Q9NYJ7 27-618, stated change not applied): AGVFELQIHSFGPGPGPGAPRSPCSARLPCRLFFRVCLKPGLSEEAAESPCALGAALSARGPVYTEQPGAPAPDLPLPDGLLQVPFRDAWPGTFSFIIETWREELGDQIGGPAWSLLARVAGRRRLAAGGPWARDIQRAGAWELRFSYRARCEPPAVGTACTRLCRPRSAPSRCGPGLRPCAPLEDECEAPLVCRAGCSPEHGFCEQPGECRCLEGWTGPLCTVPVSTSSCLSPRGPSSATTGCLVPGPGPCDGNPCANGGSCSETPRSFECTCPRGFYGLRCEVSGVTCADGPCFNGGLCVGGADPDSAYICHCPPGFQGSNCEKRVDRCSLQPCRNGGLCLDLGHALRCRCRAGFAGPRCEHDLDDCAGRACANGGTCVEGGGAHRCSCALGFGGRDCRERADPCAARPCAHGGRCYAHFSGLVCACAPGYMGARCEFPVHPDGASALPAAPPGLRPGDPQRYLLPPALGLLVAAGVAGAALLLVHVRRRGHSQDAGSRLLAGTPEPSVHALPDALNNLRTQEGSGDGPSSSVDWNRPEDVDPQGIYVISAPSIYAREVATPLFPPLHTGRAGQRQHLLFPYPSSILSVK

[4] = molecular target: human DLL3 protein expressed on CHO-K1 recombinant cells (human DLL3 extracellular segment fused to EpCAM transmembrane and intracellular regions) (human) (UniProt Q9NYJ7); test: FACS, CHO-K1 hDLL3 cells, 0.16 nM antibody
Sequence of human DLL3 protein expressed on CHO-K1 recombinant cells (human DLL3 extracellular segment fused to EpCAM transmembrane and intracellular regions) (human) (Q9NYJ7 other isoform, or with tags, fused parts or gaps limits assumed): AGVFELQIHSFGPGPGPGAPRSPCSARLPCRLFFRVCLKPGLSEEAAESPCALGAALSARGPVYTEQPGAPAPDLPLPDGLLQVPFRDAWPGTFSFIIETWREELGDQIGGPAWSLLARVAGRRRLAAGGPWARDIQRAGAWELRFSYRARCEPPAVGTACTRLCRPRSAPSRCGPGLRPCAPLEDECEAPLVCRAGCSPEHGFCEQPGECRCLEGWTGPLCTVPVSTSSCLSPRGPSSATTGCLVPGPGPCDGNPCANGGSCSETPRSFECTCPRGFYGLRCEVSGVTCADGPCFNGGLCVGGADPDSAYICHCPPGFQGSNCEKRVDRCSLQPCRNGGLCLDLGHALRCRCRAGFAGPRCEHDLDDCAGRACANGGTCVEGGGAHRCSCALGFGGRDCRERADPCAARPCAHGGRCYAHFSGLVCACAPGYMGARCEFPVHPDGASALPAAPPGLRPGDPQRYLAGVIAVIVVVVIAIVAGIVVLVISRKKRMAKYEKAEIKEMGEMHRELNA

[5] = molecular target: monkey DLL3 on CHO-K1-cyno DLL3 cells (cynomolgus monkey); test: FACS, CHO-K1-cyno DLL3 cells, 100 nM antibody
Sequence of monkey DLL3 on CHO-K1-cyno DLL3 cells (cynomolgus monkey) (chain, as listed by the source limits assumed): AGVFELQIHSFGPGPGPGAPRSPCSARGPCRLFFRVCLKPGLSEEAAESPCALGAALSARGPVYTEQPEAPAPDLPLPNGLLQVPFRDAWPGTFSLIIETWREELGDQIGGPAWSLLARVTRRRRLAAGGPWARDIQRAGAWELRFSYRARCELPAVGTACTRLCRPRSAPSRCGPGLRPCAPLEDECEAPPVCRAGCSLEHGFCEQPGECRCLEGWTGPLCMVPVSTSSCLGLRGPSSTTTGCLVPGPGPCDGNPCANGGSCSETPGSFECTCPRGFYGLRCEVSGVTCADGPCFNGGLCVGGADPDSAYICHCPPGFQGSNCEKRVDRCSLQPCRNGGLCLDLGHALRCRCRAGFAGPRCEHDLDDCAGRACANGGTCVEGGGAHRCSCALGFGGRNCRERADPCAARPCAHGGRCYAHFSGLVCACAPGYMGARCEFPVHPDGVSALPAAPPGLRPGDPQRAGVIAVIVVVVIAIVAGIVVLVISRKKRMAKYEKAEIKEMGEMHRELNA

[6] = molecular target: human DLL3 protein expressed on CHO-K1 recombinant cells (human DLL3 extracellular segment fused to EpCAM transmembrane and intracellular regions) (human) (UniProt Q9NYJ7); test: FACS, CHO-K1 hDLL3 cells, 0.032 nM antibody
[7] = molecular target: DLL3 endogenously expressed on NCI-H82 cells (UniProt Q9NYJ7); test: FACS on NCI-H82 cells; antibody 0.16 nM
Sequence of DLL3 endogenously expressed on NCI-H82 cells (Q9NYJ7 27-618): as the sequence (Q9NYJ7 27-618, stated change not applied) above

[8] = molecular target: human DLL3 protein expressed on CHO-K1 recombinant cells (human DLL3 extracellular segment fused to EpCAM transmembrane and intracellular regions) (human) (UniProt Q9NYJ7); test: FACS, CHO-K1 hDLL3 cells, 0.00128 nM antibody
[9] = molecular target: human DLL3 protein expressed on CHO-K1 recombinant cells (human DLL3 extracellular segment fused to EpCAM transmembrane and intracellular regions) (human) (UniProt Q9NYJ7); test: FACS, CHO-K1 hDLL3 cells, 4 nM antibody
[10] = molecular target: monkey DLL3 on CHO-K1-cyno DLL3 cells (cynomolgus monkey); test: FACS, CHO-K1-cyno DLL3 cells, 0.8 nM antibody
[11] = molecular target: human DLL3 protein expressed on CHO-K1 recombinant cells (human DLL3 extracellular segment fused to EpCAM transmembrane and intracellular regions) (human) (UniProt Q9NYJ7); test: FACS, CHO-K1 hDLL3 cells, 20 nM antibody
[12] = molecular target: monkey DLL3 on CHO-K1-cyno DLL3 cells (cynomolgus monkey); test: FACS, CHO-K1-cyno DLL3 cells, 20 nM antibody
[13] = molecular target: human DLL3 protein (extracellular segment, His tag) (human) (UniProt Q9NYJ7); test: SPR (Biacore 8K), antibody captured on Protein A chip, DLL3 antigen in solution, 1:1 Langmuir fit
Sequence of human DLL3 protein (extracellular segment, His tag) (human) (Q9NYJ7 27-492): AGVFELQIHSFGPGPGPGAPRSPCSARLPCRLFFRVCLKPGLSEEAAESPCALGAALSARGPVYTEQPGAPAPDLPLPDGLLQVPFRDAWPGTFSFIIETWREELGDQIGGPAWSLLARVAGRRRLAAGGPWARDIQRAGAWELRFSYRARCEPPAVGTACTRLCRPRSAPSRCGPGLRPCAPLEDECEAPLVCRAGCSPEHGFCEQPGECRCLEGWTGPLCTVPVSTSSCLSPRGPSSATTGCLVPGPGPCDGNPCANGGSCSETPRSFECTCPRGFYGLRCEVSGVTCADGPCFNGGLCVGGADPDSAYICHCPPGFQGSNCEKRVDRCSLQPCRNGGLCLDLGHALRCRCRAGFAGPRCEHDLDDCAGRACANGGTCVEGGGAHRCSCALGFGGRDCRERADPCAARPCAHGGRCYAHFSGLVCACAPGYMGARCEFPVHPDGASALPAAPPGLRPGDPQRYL

[14] = molecular target: monkey DLL3 on CHO-K1-cyno DLL3 cells (cynomolgus monkey); test: FACS, CHO-K1-cyno DLL3 cells, 0.00128 nM antibody
[15] = molecular target: DLL3 endogenously expressed on NCI-H82 cells (UniProt Q9NYJ7); test: FACS on NCI-H82 cells; antibody 0.0064 nM
[16] = molecular target: DLL3 endogenously expressed on NCI-H82 cells (UniProt Q9NYJ7); test: FACS on NCI-H82 cells; antibody 4 nM
[17] = molecular target: monkey DLL3 on CHO-K1-cyno DLL3 cells (cynomolgus monkey); test: FACS, CHO-K1-cyno DLL3 cells, 0.032 nM antibody
[18] = molecular target: DLL3 endogenously expressed on NCI-H82 cells (UniProt Q9NYJ7); test: FACS on NCI-H82 cells; antibody 0.032 nM
[19] = molecular target: human DLL3 protein expressed on CHO-K1 recombinant cells (human DLL3 extracellular segment fused to EpCAM transmembrane and intracellular regions) (human) (UniProt Q9NYJ7); test: FACS, CHO-K1 hDLL3 cells, 0.8 nM antibody
[20] = molecular target: human DLL3 protein expressed on CHO-K1 recombinant cells (human DLL3 extracellular segment fused to EpCAM transmembrane and intracellular regions) (human) (UniProt Q9NYJ7); test: FACS, CHO-K1 hDLL3 cells, 100 nM antibody
[21] = molecular target: DLL3 endogenously expressed on NCI-H82 cells (UniProt Q9NYJ7); test: FACS on NCI-H82 cells; antibody 20 nM
[22] = molecular target: DLL3 endogenously expressed on NCI-H82 cells (UniProt Q9NYJ7); test: FACS on NCI-H82 cells; antibody 0.8 nM
[23] = molecular target: monkey DLL3 on CHO-K1-cyno DLL3 cells (cynomolgus monkey); test: FACS, CHO-K1-cyno DLL3 cells, 0.16 nM antibody
[24] = molecular target: DLL3 endogenously expressed on NCI-H82 cells (UniProt Q9NYJ7); test: FACS on NCI-H82 cells; antibody 100 nM
[25] = molecular target: DLL3 endogenously expressed on NCI-H82 cells (UniProt Q9NYJ7); test: FACS on NCI-H82 cells; antibody 0.00128 nM
[26] = molecular target: monkey DLL3 on CHO-K1-cyno DLL3 cells (cynomolgus monkey); test: FACS, CHO-K1-cyno DLL3 cells, 4 nM antibody
[27] = molecular target: monkey DLL3 on CHO-K1-cyno DLL3 cells (cynomolgus monkey); test: FACS, CHO-K1-cyno DLL3 cells, 0.0064 nM antibody
[28] = molecular target: human DLL3 protein expressed on CHO-K1 recombinant cells (human DLL3 extracellular segment fused to EpCAM transmembrane and intracellular regions) (human) (UniProt Q9NYJ7); test: FACS, CHO-K1 hDLL3 cells, 0.0064 nM antibody

Emax of OD450 nm binding value [1]	Emax of OD450 nm binding value [2]	MFI at 0.00128 nM [3]	MFI at 0.0064 nM [3]	MFI at 0.032 nM [3]	MFI at 0.16 nM [3]	MFI at 0.8 nM [3]	MFI at 4 nM [3]	MFI at 20 nM [3]	MFI at 100 nM [3]	MFI [4]	MFI [5]	MFI [6]	MFI [7]	MFI [8]	MFI [9]	MFI [10]	MFI [11]	MFI [12]	Kd [13]	also measured	Binder
0.04 OD450 nm	0.04 OD450 nm	117 MFI	117 MFI	121 MFI	129 MFI	168 MFI	255 MFI	426 MFI	613 MFI	715 MFI	21400 MFI	240 MFI	97	98 MFI	7190 MFI	3980 MFI	8200 MFI	21300 MFI	0.529 nM	koff [13]: 0.000405 s⁻¹; kon [13]: 766000 M⁻¹ s⁻¹; MFI [14]: 103 MFI; MFI [15]: 89; MFI [16]: 307; MFI [17]: 329 MFI; MFI [18]: 90; MFI [19]: 2700 MFI; MFI [20]: 7600 MFI; MFI [21]: 448; MFI [22]: 135; MFI [23]: 928 MFI; MFI [24]: 550; MFI [25]: 85; MFI [26]: 14800 MFI; MFI [27]: 148 MFI; MFI [28]: 126 MFI	B1
0.11 OD450 nm	0.18 OD450 nm	117 MFI	117 MFI	122 MFI	133 MFI	194 MFI	330 MFI	634 MFI	974 MFI	671 MFI	21600 MFI	235 MFI	102	100 MFI	7140 MFI	3470 MFI	8320 MFI	20300 MFI	0.902 nM	koff [13]: 0.000312 s⁻¹; kon [13]: 345000 M⁻¹ s⁻¹; MFI [14]: 103 MFI; MFI [15]: 90; MFI [16]: 388; MFI [17]: 252 MFI; MFI [18]: 91; MFI [19]: 2370 MFI; MFI [20]: 8950 MFI; MFI [21]: 674; MFI [22]: 152; MFI [23]: 724 MFI; MFI [24]: 1340; MFI [25]: 99; MFI [26]: 12900 MFI; MFI [27]: 142 MFI; MFI [28]: 131 MFI	B2
